# Laboratory results taken from article PMC10873366, “DNA binding redistributes activation domain ensemble and accessibility in pioneer factor Sox2”.
# B1: 15 bp specific DNA, labelled (dsDNA)
# DNA 1: ACTCTTTGTTTGGAT
# DNA 2: ATCCAAACAAAGAGT
# modifications: 5' C6-amino linker on both strands
# B2: 30 bp specific DNA (dsDNA)
# DNA 1: ATCCCATTAGCATCCAAACAAAGAGTTTTC
# DNA 2: GAAAACTCTTTGTTTGGATGCTAATGGGAT
# B3: 15 bp specific DNA, unlabelled (dsDNA)
# DNA 1: ACTCTTTGTTTGGAT
# DNA 2: ATCCAAACAAAGAGT
# B4: 15 bp nonspecific DNA, labelled (dsDNA)
# DNA 1: TCTATCTGTGTATGT
# DNA 2: ACATACACAGATAGA
# modifications: 5' C6-amino linker on both strands
# Legend:
# [1] = biological target: T1, Sox2 full-length, unlabelled (UniProt P48431 1-317); experiment: smFRET titration; 200 mM salt (table; text gives 165 mM KCl); smFRET: 165 mM KCl or 200 mM salt (Supplementary Table 4), buffer details not in material; NMR: 20 mM NaH2PO4, 50 mM NaCl, 5 mM DTT, pH 5.5, 15 C; settings: protein: recombinant; tags: His6-SUMO removed by ULP1; label: Cy3B and CF660R, one on each 5' end; blunt
# T1 sequence (P48431 whole entry): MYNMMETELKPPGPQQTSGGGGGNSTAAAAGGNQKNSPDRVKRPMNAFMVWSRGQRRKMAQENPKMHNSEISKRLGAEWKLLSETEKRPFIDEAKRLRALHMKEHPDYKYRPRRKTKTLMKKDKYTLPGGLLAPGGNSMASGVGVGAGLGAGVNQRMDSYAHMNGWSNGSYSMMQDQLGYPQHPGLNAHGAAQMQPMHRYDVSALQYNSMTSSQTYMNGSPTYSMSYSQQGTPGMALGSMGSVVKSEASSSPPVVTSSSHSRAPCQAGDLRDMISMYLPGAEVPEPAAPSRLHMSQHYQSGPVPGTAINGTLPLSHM
# [2] = biological target: T2, Sox2 DBD, isolated, unlabelled (UniProt P48431 37-120); experiment: as above; settings: protein: recombinant; tags: His6-SUMO removed by ULP1; label: Cy3B and CF660R, one on each 5' end; blunt
# T2 sequence (P48431 37-120): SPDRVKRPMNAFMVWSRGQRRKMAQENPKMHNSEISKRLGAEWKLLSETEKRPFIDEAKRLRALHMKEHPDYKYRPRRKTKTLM
# [3] = biological target: Sox2 DBD labelled at 37 and 120 (UniProt P48431 37-120, S37C;M120C); experiment: smFRET titration; 200 mM salt; labelled protein; smFRET: 165 mM KCl or 200 mM salt (Supplementary Table 4), buffer details not in material; NMR: 20 mM NaH2PO4, 50 mM NaCl, 5 mM DTT, pH 5.5, 15 C; settings: protein: recombinant; tags: His6-SUMO removed by ULP1; blunt
# Chain of Sox2 DBD labelled at 37 and 120 (P48431 37-120 S37C/M120C): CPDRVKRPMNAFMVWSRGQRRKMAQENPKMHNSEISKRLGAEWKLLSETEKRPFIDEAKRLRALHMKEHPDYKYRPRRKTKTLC
# [4] = biological target: T1, Sox2 full-length, unlabelled; experiment: NMR (1H15N HSQC CSP); 30 uM Sox2, 1.1-fold DNA, 50 mM NaCl, pH 5.5, 15 C; smFRET: 165 mM KCl or 200 mM salt (Supplementary Table 4), buffer details not in material; NMR: 20 mM NaH2PO4, 50 mM NaCl, 5 mM DTT, pH 5.5, 15 C; settings: protein: recombinant; tags: His6-SUMO removed by ULP1; blunt
# [5] = biological target: Sox2 full-length labelled in the C-IDR (UniProt P48431 1-317, M120C;S315C); experiment: smFRET (C-IDR expands, E 0.43 to 0.28); smFRET: 165 mM KCl or 200 mM salt (Supplementary Table 4), buffer details not in material; NMR: 20 mM NaH2PO4, 50 mM NaCl, 5 mM DTT, pH 5.5, 15 C; settings: protein: recombinant; tags: His6-SUMO removed by ULP1; blunt
# Chain of Sox2 full-length labelled in the C-IDR (P48431 whole entry M120C/S315C): as the sequence (P48431 whole entry) above, with M120C, S315C counted along it
# [6] = biological target: T1, Sox2 full-length, unlabelled; experiment: smFRET titration; 200 mM salt; smFRET: 165 mM KCl or 200 mM salt (Supplementary Table 4), buffer details not in material; NMR: 20 mM NaH2PO4, 50 mM NaCl, 5 mM DTT, pH 5.5, 15 C; settings: protein: recombinant; tags: His6-SUMO removed by ULP1; label: Cy3B and CF660R, one on each 5' end; blunt
# [7] = biological target: T2, Sox2 DBD, isolated, unlabelled; experiment: as above; settings: protein: recombinant; tags: His6-SUMO removed by ULP1; label: Cy3B and CF660R, one on each 5' end; blunt
binder,measurement,setting,value
B1,Kd,[1],400 ± 200 pM
same,Kd,[2],300 ± 100 pM
B2,Kd,[3],300 ± 200 pM
B3,binding result,[4],binds
same,binding result,[5],binds
B4,Kd,[6],6000 ± 2000 pM
same,Kd,[7],11000 ± 4000 pM
